In patent CN116199778A (SHANGHAI JUNSHI BIOSCIENCES CO LTD; JUNMENG BIOSCIENCES CO …, dated 2023):

B1: JS011-phage6 (antibody, V domains shown)
VH: QVQLVQSGAEVKKPGASVKVSCKASGYTFTGQYIHWARQAPGQGLEWMGWINPNSGGTNYAQKFQGRVTMTRDTSISTAYMELSRLRSDDTAVYYCARDKAGADYWGQGTLVTVSS
VL: ELALTQPPSVSGSPGQSITISCTGTSSDIGGYDYVSWYQQYPGKAPKLMISGVSNRPSGVSNRFSGSKSGNTASLIISGLQAEDEGDYYCSSYTSRSTRWVFGGGTKLTVL
B2: Urelumab (antibody, V domains shown)
VH: QVQLQQWGAGLLKPSETLSLTCAVYGGSFSGYYWSWIRQSPEKGLEWIGEINHGGYVTYNPSLESRVTISVDTSKNQFSLKLSSVTAADTAVYYCARDYGPGNYDWYFDLWGRGTLVTVSS
VL: EIVLTQSPATLSLSPGERATLSCRASQSVSSYLAWYQQKPGQAPRLLIYDASNRATGIPARFSGSGSGTDFTLTISSLEPEDFAVYYCQQRSNWPPALTFGGGTKVEIK
B3: JS011-phage3 (antibody, V domains shown)
VH: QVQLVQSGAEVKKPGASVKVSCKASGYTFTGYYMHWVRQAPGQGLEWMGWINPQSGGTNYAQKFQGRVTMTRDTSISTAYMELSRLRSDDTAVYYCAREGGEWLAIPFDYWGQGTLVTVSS
VL: ELELTQPPSVSVSPGQTASITCSADKLGDKYASWYQQKPGQSPVLVLYEDSKRPSGIPERISGSNSGNTATLTIRGTQPMDEADYYCQTWDTNTVLFGGGTRLTVL

Assays:
[1] = target: 4-1BB on the surface of Jurkat NFKB 4-1BB cells (UniProt Q07011 24-255, limits assumed); experiment: cell-based or functional assay
Sequence of 4-1BB on the surface of Jurkat NFKB 4-1BB cells (Q07011 24-255 limits assumed): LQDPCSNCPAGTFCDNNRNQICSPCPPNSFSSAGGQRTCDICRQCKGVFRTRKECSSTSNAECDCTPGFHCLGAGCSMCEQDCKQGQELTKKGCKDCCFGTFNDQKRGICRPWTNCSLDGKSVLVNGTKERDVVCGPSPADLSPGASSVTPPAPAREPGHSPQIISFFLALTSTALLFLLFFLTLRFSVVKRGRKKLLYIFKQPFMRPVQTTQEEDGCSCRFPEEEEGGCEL

[2] = target: T1, 含有His标签的鼠4-1BB (mouse 4-1BB with His tag, Sino Biological 50811-M08H) (mouse, UniProt P20334 24-187); experiment: ELISA, His-tagged mouse 4-1BB coated at 1.0 ug/mL, antibody titrated, anti-human IgG4 Fc HRP detection
T1 construct: Bought protein; Coated on the ELISA plate at 1.0 ug/mL; not shown: His tag
T1 sequence (looked up): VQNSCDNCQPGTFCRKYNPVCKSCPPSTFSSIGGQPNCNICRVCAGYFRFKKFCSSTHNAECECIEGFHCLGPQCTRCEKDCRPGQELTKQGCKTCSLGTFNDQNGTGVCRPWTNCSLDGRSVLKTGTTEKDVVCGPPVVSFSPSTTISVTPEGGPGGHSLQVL

Row | Binder | EC50, luciferase reporter (RLU), Raji / Jurkat NFKB 4-1BB two-cell system [1] [mg/L] | EC50, luciferase reporter (RLU), THP-1 / Jurkat NFKB 4-1BB two-cell system [1] [mg/L] | binding result [2] | EC50, luciferase reporter (RLU), Raji / Jurkat NFKB (4-1BB low expression) two-cell system [1] [mg/L]
1 | B1 | 2.71 | 0.283 | no binding (tested: 1μg/ml起始) | 
2 | B2 | 7.24 | 219 |  | 86
3 | B3 | 9.45 | 0.00664 |  | 9.45
